Assays:
[1] = target: T1, angiopoietin-2 (Ang2) (human, UniProt O15123 68-496, limits assumed); assay: ELISA on rhAng2-coated wells, MRD-MBP fusion, anti-MBP detection; EC50 by 4 parameter fit
T1 construct: Plain and biotinylated Ang2 are kept as one molecule; also called rhAng2; recombinant Ang2
T1 sequence (looked up): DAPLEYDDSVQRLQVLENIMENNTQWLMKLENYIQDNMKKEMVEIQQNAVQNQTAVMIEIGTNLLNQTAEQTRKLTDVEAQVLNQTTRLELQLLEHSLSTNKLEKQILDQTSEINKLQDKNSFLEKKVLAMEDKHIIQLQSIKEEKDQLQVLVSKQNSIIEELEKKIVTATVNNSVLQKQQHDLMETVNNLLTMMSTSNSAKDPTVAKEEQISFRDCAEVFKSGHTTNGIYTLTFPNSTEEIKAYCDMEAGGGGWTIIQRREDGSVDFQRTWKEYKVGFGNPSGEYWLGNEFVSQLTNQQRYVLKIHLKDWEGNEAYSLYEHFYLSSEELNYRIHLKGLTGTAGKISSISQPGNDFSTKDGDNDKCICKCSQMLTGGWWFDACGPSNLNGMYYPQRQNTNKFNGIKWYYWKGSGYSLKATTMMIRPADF
Experimental: (§1) MBP fusion proteins were serially diluted in Blocking buffer and added to wells for 2 hours at RT. After washing (8×300 μl wash buffer), samples were treated with HRP-mouse anti MBP mAb (NEB, cat # E8038S), diluted 1:4000 in Blocking buffer. After incubation for 1 hour at RT, wells were washed (8×300 μl wash buffer) prior to receiving 100 μl of TMB substrate (KPL Laboratories). Color development was stopped with 100 μl of H₂SO₄, and absorbance was read at 450 nm.
(§2) Bound fusion proteins were detected with anti-MBP mAb. Assayed proteins represent mutational variants of the sequence […] […] (L17D) (SEQ ID NO:107). In this series, the motif MDD within L17D was mutated at the first D to all other possible amino acids (except cysteine). Other MRDs tested were “Lm32 KtoS” and a dimer of Lm32 (2×Lm32).

[2] = target: T1, angiopoietin-2 (Ang2); assay: ELISA, MRD-MBP fusions on plate-bound rhAng2, anti-MBP detection
Experimental: as §1, §2

[3] = target: T2, VEGF (human, UniProt P15692-4 27-191); assay: ELISA, human VEGF coated (30 ng/ml), sample diluted in 3.876 ug/ml biotinylated Ang2, detection with HRP anti-human kappa chain mAb, A450
T2 construct: also called human VEGF
T2 sequence (P15692 other isoform, or with tags, fused parts or gaps limits assumed): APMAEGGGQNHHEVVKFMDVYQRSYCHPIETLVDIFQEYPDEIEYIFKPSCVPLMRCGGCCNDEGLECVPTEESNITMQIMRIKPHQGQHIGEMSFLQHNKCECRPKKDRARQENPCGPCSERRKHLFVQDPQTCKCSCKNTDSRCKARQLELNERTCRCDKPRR
Experimental: (§3) Ninety-six-well plates were coated overnight with human VEGF (PeproTech, Inc. cat#100-20) at 30 ng/ml (100 μl/well). […] After washing (8×300 μl wash buffer), parallel samples received either HRP-conjugated anti-human kappa chain mAb (Abeam, cat # ab79115) diluted 1:1000 in Blocking buffer or HRP-conjugated streptavidin (Thermo Scientific cat#N100) diluted 1:4000 diluted in Blocking buffer. After incubation for 1 hour at RT, wells were washed (8×300 μl wash buffer) prior to receiving 100 μl of TMB substrate (KPL Laboratories). Color development was stopped with 100 μl of H₂SO₄, and absorbance was read at 450 nm.

[4] = target: T2, VEGF; assay: cell-based or functional assay
[5] = target: T3, rHER2-Fc (UniProt P04626 23-652); assay: ELISA, rHER2-Fc coated (20 ng/ml), sample diluted in 1.94 ug/ml biotinylated Ang2, detection with HRP anti-human kappa chain mAb, A450
T3 construct: Bought reagent; also called Her2 (ErbB2) Fc; ErbB2-Fc
Experimental: as §3, with “with rHER2-Fc (R&D cat#1129-ER-050)” for “with human VEGF (PeproTech, Inc. cat#100-20)”, “at 20” for “at 30”, “ng/ml (100W/well).” for “ng/ml (100 μl/well).”, “chain mAb-(Abeam,” for “chain mAb (Abeam,”, “# ab79115-1)” for “# ab79115)”

[6] = target: T2, VEGF; assay: sandwich ELISA, human VEGF coated (30 ng/ml), zybody varied in 3.876 ug/ml biotinylated Ang2, detection with HRP-streptavidin, A450
Experimental: as §3

B1: 2×Lm32-MBP fusion (other, not shown: small tags and cut ends)
peptide: PGKGGGSMGAQTNFMPMDNDELLLYEQFILQQGLEGGGSMGAQTNFMPMDNDELLLYEQFILQQGLE
notes: also called Lm32 dimer
- EC50 [1]: 5 pM
- fold higher affinity than L17D or Lm32 KtoS [2]: > 10 fold

B2: AVA-lm32(H) (bispecific antibody, not shown: a dimerising Fc or GST)
heavy (part 1 of 2): EVQLVESGGGLVQPGGSLRLSCAASGYTFTNYGMNWVRQAPGKGLEWVGWINTYTGEPTYAADFKRRFTFSLDTSKSTAYLQMNSLRAEDTAVYYCAKYPHYYGSSHWYFDVWGQGTLVTVSS
heavy (part 2 of 2): MGAQTNFMPMDNDELLLYEQFILQQGLE
VL: DIQMTQSPSSLSASVGDRVTITCSASQDISNYLNWYQQKPGKAPKVLIYFTSSLHSGVPSRFSGSGSGTDFTLTISSLQPEDFATYYCQQYSTVPWTFGQGTKVEIKR
notes: also called AVASTIN with the lm32 MRD fused to the heavy chain
- EC50 (read off the curve) [3]: ~500 pM
- inhibition of VEGF-induced proliferation of HUVEC, IC50 [4]: 360 pM
- binding result [5]: no binding (tested: about 7 nM)
- EC50 (read off the curve) [6]: ~700 pM

From patent US20170298106A1 (ZYNGENIA, published 2017)
